Assay results: the supplement of paper PMC9112550, “Optimization of the antimicrobial peptide Bac7 by deep mutational scanning” (BMC Biology, 2022)

The sequences below were run on Escherichia coli TOP10 (assay: shrunken log2 fold change of peptide-encoding DNA abundance (4.5 h post-induction vs induction); higher = less antimicrobial activity (less host growth inhibition)). Conditions: time post-induction: 4.5 h; library: site-saturation at positions 5, 18, 19, 20.
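Further: peptides expressed intracellularly from a pBAD plasmid library in pooled LB shake-flask culture, induced with 0.3% L-arabinose, DNA abundance read by NGS, three biological replicates, DESeq2 with apeglm shrinkage.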

Going from RRIRYRPPRLPRPRPRPCKNPRP to RRIRWRPPRLPRPRPRPFNQPRP, the “shrunken log2 fold change” value rises from -1.05 to -0.494.

Going from RRIRDRPPRLPRPRPRPSQNPRP to RRIRVRPPRLPRPRPRPSDFPRP, the “shrunken log2 fold change” value falls from 0.113 to -0.394.

RRIRDRPPRLPRPRPRPLNKPRP and RRIRKRPPRLPRPRPRPLYCPRP are within 0.2 log units of each other in “shrunken log2 fold change” value: -0.295 for the first, -0.237 for the second.

First: RRIRRRPPRLPRPRPRPDMYPRP
Second: RRIRYRPPRLPRPRPRPLVTPRP
The “shrunken log2 fold change” value of the first is higher: -0.315 for the first, -0.616 for the second.

Compared with RRIRSRPPRLPRPRPRPEYFPRP, RRIRYRPPRLPRPRPRPFIKPRP is higher in “shrunken log2 fold change” value: -1.04 for the first, -0.263 for the second.

Going from RRIRPRPPRLPRPRPRPWHSPRP to RRIRFRPPRLPRPRPRPFMYPRP, the “shrunken log2 fold change” value falls from -0.134 to -0.742.

Compared with RRIRNRPPRLPRPRPRPWCDPRP, RRIRLRPPRLPRPRPRPVKAPRP is higher in “shrunken log2 fold change” value: -0.365 for the first, -0.0553 for the second.

Compared with RRIRHRPPRLPRPRPRPRGRPRP, RRIRVRPPRLPRPRPRPIYLPRP is lower in “shrunken log2 fold change” value: -0.0974 for the first, -0.543 for the second.

Going from RRIRQRPPRLPRPRPRPPKVPRP to RRIRERPPRLPRPRPRPDIQPRP, the “shrunken log2 fold change” value rises from 2.65e-05 to 3.69.

Compared with RRIRHRPPRLPRPRPRPYMKPRP, RRIRSRPPRLPRPRPRPLEGPRP is higher in “shrunken log2 fold change” value: -0.541 for the first, -0.131 for the second.

First: RRIRDRPPRLPRPRPRPVAPPRP
Second: RRIRARPPRLPRPRPRPHSSPRP
The “shrunken log2 fold change” value of the first is higher: 0.445 for the first, -0.137 for the second.

RRIRHRPPRLPRPRPRPICFPRP and RRIRPRPPRLPRPRPRPQEFPRP are within 0.2 log units of each other in “shrunken log2 fold change” value: -0.114 for the first, 0.0774 for the second.

RRIRFRPPRLPRPRPRPSTKPRP and RRIRNRPPRLPRPRPRPRVHPRP are within 0.2 log units of each other in “shrunken log2 fold change” value: 0.0858 for the first, 0.172 for the second.

First: RRIRYRPPRLPRPRPRPNHGPRP
Second: RRIRNRPPRLPRPRPRPAKRPRP
The “shrunken log2 fold change” value of the first is lower: -0.0102 for the first, 0.27 for the second.

Going from RRIRARPPRLPRPRPRPEQKPRP to RRIRLRPPRLPRPRPRPYYGPRP, the “shrunken log2 fold change” value falls from 1.29 to -0.838.

First: RRIRQRPPRLPRPRPRPLTLPRP
Second: RRIRTRPPRLPRPRPRPPSKPRP
The “shrunken log2 fold change” value of the first is higher: -0.104 for the first, -0.326 for the second.

RRIRTRPPRLPRPRPRPYSGPRP and RRIRPRPPRLPRPRPRPEDYPRP are within 0.2 log units of each other in “shrunken log2 fold change” value: -0.00196 for the first, -0.0172 for the second.

Going from RRIRFRPPRLPRPRPRPDYYPRP to RRIRMRPPRLPRPRPRPRHTPRP, the “shrunken log2 fold change” value rises from -1.21 to 1.15.

First: RRIRGRPPRLPRPRPRPTSNPRP
Second: RRIRNRPPRLPRPRPRPSWCPRP
The “shrunken log2 fold change” value of the first is higher: 0.659 for the first, -0.0906 for the second.

RRIRVRPPRLPRPRPRPFEWPRP and RRIRWRPPRLPRPRPRPPFMPRP are within 0.2 log units of each other in “shrunken log2 fold change” value: -0.102 for the first, 0.0466 for the second.

Compared with RRIRMRPPRLPRPRPRPKLQPRP, RRIRLRPPRLPRPRPRPGYPPRP is lower in “shrunken log2 fold change” value: 0.273 for the first, -0.361 for the second.

Going from RRIRTRPPRLPRPRPRPIKQPRP to RRIRARPPRLPRPRPRPQRIPRP, the “shrunken log2 fold change” value rises from -0.0342 to 0.177.

RRIRVRPPRLPRPRPRPGMMPRP and RRIRLRPPRLPRPRPRPRGKPRP are within 0.2 log units of each other in “shrunken log2 fold change” value: 0.135 for the first, 0.0746 for the second.

Compared with RRIRHRPPRLPRPRPRPVCSPRP, RRIRYRPPRLPRPRPRPCVRPRP is higher in “shrunken log2 fold change” value: -0.168 for the first, 0.0523 for the second.

Going from RRIRCRPPRLPRPRPRPGRKPRP to RRIRDRPPRLPRPRPRPPDPPRP, the “shrunken log2 fold change” value rises from 0.0644 to 0.931.

RRIRQRPPRLPRPRPRPHELPRP and RRIRIRPPRLPRPRPRPEQVPRP are within 0.2 log units of each other in “shrunken log2 fold change” value: -0.00752 for the first, 0.0205 for the second.

First: RRIRPRPPRLPRPRPRPLWWPRP
Second: RRIRIRPPRLPRPRPRPQAKPRP
The “shrunken log2 fold change” value of the first is higher: 0.649 for the first, 0.2 for the second.

RRIRTRPPRLPRPRPRPWYEPRP and RRIRTRPPRLPRPRPRPVVEPRP are within 0.2 log units of each other in “shrunken log2 fold change” value: -0.145 for the first, 0.0529 for the second.

RRIRQRPPRLPRPRPRPPHMPRP and RRIRKRPPRLPRPRPRPFLAPRP are within 0.2 log units of each other in “shrunken log2 fold change” value: 0.287 for the first, 0.169 for the second.

RRIRERPPRLPRPRPRPLKKPRP and RRIRDRPPRLPRPRPRPETVPRP are within 0.2 log units of each other in “shrunken log2 fold change” value: 0.0403 for the first, -0.0114 for the second.

RRIRTRPPRLPRPRPRPHSFPRP and RRIRDRPPRLPRPRPRPNWEPRP are within 0.2 log units of each other in “shrunken log2 fold change” value: -0.0168 for the first, 0.0184 for the second.

RRIRYRPPRLPRPRPRPGWAPRP and RRIRGRPPRLPRPRPRPDNTPRP are within 0.2 log units of each other in “shrunken log2 fold change” value: 0.0172 for the first, 0.204 for the second.

RRIRTRPPRLPRPRPRPTTAPRP and RRIRDRPPRLPRPRPRPMMSPRP are within 0.2 log units of each other in “shrunken log2 fold change” value: 0.0738 for the first, -0.0107 for the second.

Compared with RRIRERPPRLPRPRPRPVCRPRP, RRIRTRPPRLPRPRPRPYCNPRP is lower in “shrunken log2 fold change” value: -0.0104 for the first, -1.32 for the second.

RRIRLRPPRLPRPRPRPSMCPRP and RRIRSRPPRLPRPRPRPFYHPRP are within 0.2 log units of each other in “shrunken log2 fold change” value: -0.196 for the first, -0.28 for the second.

RRIRVRPPRLPRPRPRPKIDPRP and RRIRERPPRLPRPRPRPWHVPRP are within 0.2 log units of each other in “shrunken log2 fold change” value: 0.124 for the first, -0.0018 for the second.

Going from RRIRKRPPRLPRPRPRPRNVPRP to RRIRQRPPRLPRPRPRPWYTPRP, the “shrunken log2 fold change” value falls from 0.132 to -0.132.

In the case of RRIRIRPPRLPRPRPRPIRIPRP, the “shrunken log2 fold change” value is reported as 0.0736.
